Source: paper PMC2173952

Key:
[1] = molecular target: cpSRP54-his (A. thaliana) (UniProt P37107); experiment: co-IP
Trx-cpFtsY = Trx-cpFtsY (UniProt O80842); experiment: pull-down
Chain of UniProt O80842 (O80842 41-366): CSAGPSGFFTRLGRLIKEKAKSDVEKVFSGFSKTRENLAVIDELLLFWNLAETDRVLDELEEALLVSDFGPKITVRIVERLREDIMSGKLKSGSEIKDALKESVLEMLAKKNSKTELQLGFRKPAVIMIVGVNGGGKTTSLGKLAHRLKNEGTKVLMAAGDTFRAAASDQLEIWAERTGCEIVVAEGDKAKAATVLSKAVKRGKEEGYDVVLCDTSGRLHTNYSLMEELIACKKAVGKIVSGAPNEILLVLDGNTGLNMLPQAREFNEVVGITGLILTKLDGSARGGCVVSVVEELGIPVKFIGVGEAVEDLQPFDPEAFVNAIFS

Chain of UniProt P37107 (P37107 76-564): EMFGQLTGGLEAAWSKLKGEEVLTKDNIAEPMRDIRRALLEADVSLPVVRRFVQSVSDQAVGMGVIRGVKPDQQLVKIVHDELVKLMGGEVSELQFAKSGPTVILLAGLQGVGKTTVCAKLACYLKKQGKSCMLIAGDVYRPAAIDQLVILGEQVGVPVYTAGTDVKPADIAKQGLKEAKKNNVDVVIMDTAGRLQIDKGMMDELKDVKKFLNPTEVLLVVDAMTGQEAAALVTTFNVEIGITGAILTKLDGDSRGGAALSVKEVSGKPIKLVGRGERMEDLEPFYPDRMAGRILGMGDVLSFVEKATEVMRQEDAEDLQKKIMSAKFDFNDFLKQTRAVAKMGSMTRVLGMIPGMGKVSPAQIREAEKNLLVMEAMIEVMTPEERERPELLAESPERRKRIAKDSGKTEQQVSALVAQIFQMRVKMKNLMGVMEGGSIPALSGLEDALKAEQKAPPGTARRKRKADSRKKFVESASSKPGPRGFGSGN

Substance: ALB3 (from UniProt Q8LBP4 57-462) (natural protein)
- fold change of the coprecipitate with cpFtsY added against cpSRP alone [1]: > 2 fold
- fold change of coprecipitated ALB3 with cpSRP added against cpFtsY alone (Trx-cpFtsY): > 6 fold
